The results in this text go back to US20250011363A1, “OPTIMIZED SHORTENED PEPTIDE THAT BINDS TO ACETYLCHOLINE RECEPTOR, AND USE THEREOF” (SKINMED CO., LTD., priority 2021, published 2025).

Assay [1] deals with acetylcholine receptor. The experiment in a line: SPR, AchR immobilised on CM5 chip, peptide 10 uM.
Assay [2] concerns the target acetylcholine receptor. As to the kind of experiment: SPR, AchR immobilized on CM5 chip, peptide at 10 uM.

B1: 6mer-2-794 (peptide)
peptide: KAEMRR
B1 yielded a Binding affinity (RU) with acetylcholine receptor [1] of 19 RU.

B2: 6mer-1-804 (peptide)
peptide: KRDPFR
B2 returned a Binding affinity (RU) with acetylcholine receptor [2] of 31 RU.

B3: 6mer-1-822 (peptide)
peptide: KREPIK
On to B3, for which, in the assay with acetylcholine receptor [2], the Binding affinity (RU) was 17 RU.

B4: 6mer-1-818 (peptide)
peptide: RKIKAR
Consider B4, for which, in the assay with acetylcholine receptor [2], the Binding affinity (RU) is 14 RU.

B5: 6mer-1-826 (peptide)
peptide: KKAHMR
B5 came in with a Binding affinity (RU) with acetylcholine receptor [2] of 31 RU.

B6: 6mer-1-835 (peptide)
peptide: KRTADK
In the case of B6, in the assay with acetylcholine receptor [2], the Binding affinity (RU) came to 26 RU.

B7: 6mer-1-827 (peptide)
peptide: RKKKFR
With B7, the Binding affinity (RU) in the assay with acetylcholine receptor [2] was 30 RU.

B8: 6mer-1-846 (peptide)
peptide: RKDAEK
In the case of B8, in the assay with acetylcholine receptor [2], the Binding affinity (RU) is 28 RU.

B9: 6mer-2-793 (peptide)
peptide: RMHKKR
Consider B9, for which the Binding affinity (RU) with acetylcholine receptor [1] stood at 29 RU.

B10: 6mer-2-777 (peptide)
peptide: KNDVRR
Molecule B10 showed a Binding affinity (RU) with acetylcholine receptor [1] of 31 RU.

B11: 6mer-1-807 (peptide)
peptide: RRDKNR
Regarding B11, the Binding affinity (RU) with acetylcholine receptor [2] turned out to be 13 RU.

B12: 6mer-2-776 (peptide)
peptide: RFPWRK
As to B12, in the assay with acetylcholine receptor [1], the Binding affinity (RU) was found to be 12 RU.

B13: 6mer-1-819 (peptide)
peptide: KRMHAK
B13 yielded a Binding affinity (RU) with acetylcholine receptor [2] of 17 RU.

B14: 6mer-2-780 (peptide)
peptide: KITIRK
Consider B14, for which, in the assay with acetylcholine receptor [1], the Binding affinity (RU) was 31 RU.

B15: 6mer-1-803 (peptide)
peptide: RKMKHK
B15 returned a Binding affinity (RU) in the assay with acetylcholine receptor [2] of 31 RU.

B16: 6mer-1-810 (peptide)
peptide: RKCNAR
B16: the Binding affinity (RU) with acetylcholine receptor [2] came out at 12 RU.

B17: 6mer-1-839 (peptide)
peptide: KRNWAK
With B17, in the assay with acetylcholine receptor [2], the Binding affinity (RU) turned out to be 29 RU.

B18: 6mer-1-836 (peptide)
peptide: RRCMIK
In turn, B18 came in with a Binding affinity (RU) with acetylcholine receptor [2] of 22 RU.

B19: 6mer-1-824 (peptide)
peptide: KKMNIK
B19 showed a Binding affinity (RU) with acetylcholine receptor [2] of 12 RU.

B20: 6mer-2-785 (peptide)
peptide: RHCHRR
In the assay with acetylcholine receptor [1], B20 had a Binding affinity (RU) of 31 RU.

B21: 6mer-1-841 (peptide)
peptide: KKDAPR
The molecule B21 registered a Binding affinity (RU) in the assay with acetylcholine receptor [2] of 30 RU.

B22: 6mer-2-782 (peptide)
peptide: KPWPKR
B22: the Binding affinity (RU) in the assay with acetylcholine receptor [1] is 18 RU.

B23: 6mer-1-834 (peptide)
peptide: KRNTIR
Take B23: in the assay with acetylcholine receptor [2], the Binding affinity (RU) is 17 RU.

B24: 6mer-1-831 (peptide)
peptide: KKNPWK
As to B24, the Binding affinity (RU) with acetylcholine receptor [2] turned out to be 15 RU.

B25: 6mer-1-806 (peptide)
peptide: RKKTIR
In the case of B25, in the assay with acetylcholine receptor [2], the Binding affinity (RU) is 12 RU.

B26: 6mer-1-802 (peptide)
peptide: RKYHGR
In the case of B26, the Binding affinity (RU) with acetylcholine receptor [2] amounted to 32 RU.

B27: 6mer-1-811 (peptide)
peptide: KRHCHK
Take B27: the Binding affinity (RU) with acetylcholine receptor [2] was found to be 16 RU.

B28: 6mer-2-791 (peptide)
peptide: KNMNRK
Consider B28, for which, in the assay with acetylcholine receptor [1], the Binding affinity (RU) was 27 RU.

B29: 6mer-1-817 (peptide)
peptide: RRIMKR
In the assay with acetylcholine receptor [2], B29 showed a Binding affinity (RU) of 16 RU.

B30: 6mer-1-838 (peptide)
peptide: KRNTWK
Consider B30, for which the Binding affinity (RU) with acetylcholine receptor [2] was found to be 17 RU.

B31: 6mer-2-781 (peptide)
peptide: KTMNRK
In turn, B31 registered a Binding affinity (RU) with acetylcholine receptor [1] of 28 RU.

B32: 6mer-1-816 (peptide)
peptide: RKIDFK
Turning to B32, the Binding affinity (RU) with acetylcholine receptor [2] came to 14 RU.

B33: 6mer-2-797 (peptide)
peptide: RHCIKR
The molecule B33 registered a Binding affinity (RU) with acetylcholine receptor [1] of 19 RU.

B34: 6mer-1-823 (peptide)
peptide: KRHTGK
Turning to B34, the Binding affinity (RU) with acetylcholine receptor [2] amounted to 12 RU.

B35: 6mer-2-792 (peptide)
peptide: RAEDKR
Regarding B35, in the assay with acetylcholine receptor [1], the Binding affinity (RU) is 13 RU.

B36: 6mer-2-778 (peptide)
peptide: RNAPKK
In turn, B36 returned a Binding affinity (RU) with acetylcholine receptor [1] of 21 RU.

B37: 6mer-2-798 (peptide)
peptide: RDTPKK
In the case of B37, the Binding affinity (RU) with acetylcholine receptor [1] was determined as 17 RU.

B38: 6mer-1-833 (peptide)
peptide: RRYKNR
With B38, the Binding affinity (RU) in the assay with acetylcholine receptor [2] was determined as 19 RU.

B39: 6mer-1-828 (peptide)
peptide: RRPNMK
The molecule B39 had a Binding affinity (RU) with acetylcholine receptor [2] of 26 RU.

B40: 6mer-2-788 (peptide)
peptide: KKEKKK
In the case of B40, the Binding affinity (RU) in the assay with acetylcholine receptor [1] was 30 RU.

B41: 6mer-2-796 (peptide)
peptide: RMMARR
With B41, the Binding affinity (RU) in the assay with acetylcholine receptor [1] is 32 RU.

B42: 6mer-1-830 (peptide)
peptide: KKTTMK
B42 returned a Binding affinity (RU) in the assay with acetylcholine receptor [2] of 33 RU.

B43: 6mer-1-837 (peptide)
peptide: KRDHAK
Take B43: the Binding affinity (RU) with acetylcholine receptor [2] was found to be 19 RU.

B44: 6mer-1-820 (peptide)
peptide: KRNDGK
On to B44, for which, in the assay with acetylcholine receptor [2], the Binding affinity (RU) is 12 RU.

B45: 6mer-1-821 (peptide)
peptide: RRTTNR
Take B45: in the assay with acetylcholine receptor [2], the Binding affinity (RU) was found to be 22 RU.

B46: 6mer-2-789 (peptide)
peptide: KNENRK
Regarding B46, the Binding affinity (RU) with acetylcholine receptor [1] turned out to be 24 RU.

B47: 6mer-2-795 (peptide)
peptide: RTHNKR
Take B47: in the assay with acetylcholine receptor [1], the Binding affinity (RU) was 16 RU.

B48: 6mer-1-800 (peptide)
peptide: RREHIR
With B48, the Binding affinity (RU) in the assay with acetylcholine receptor [2] is 15 RU.

B49: 6mer-1-843 (peptide)
peptide: KKKTIK
Molecule B49 showed a Binding affinity (RU) in the assay with acetylcholine receptor [2] of 28 RU.

B50: 6mer-2-790 (peptide)
peptide: RCAGRR
For B50, in the assay with acetylcholine receptor [1], the Binding affinity (RU) is 23 RU.

B51: 6mer-1-812 (peptide)
peptide: RKDHMK
As to B51, in the assay with acetylcholine receptor [2], the Binding affinity (RU) came out at 26 RU.

B52: 6mer-1-844 (peptide)
peptide: KKPMNR
The molecule B52 returned a Binding affinity (RU) with acetylcholine receptor [2] of 28 RU.

B53: 6mer-1-799 (peptide)
peptide: RRKKKR
In the assay with acetylcholine receptor [2], B53 displayed a Binding affinity (RU) of 30 RU.

B54: 6mer-1-805 (peptide)
peptide: KRDTMK
B54: in the assay with acetylcholine receptor [2], the Binding affinity (RU) is 24 RU.

B55: 6mer-1-829 (peptide)
peptide: RRIHKK
In the case of B55, the Binding affinity (RU) in the assay with acetylcholine receptor [2] came to 25 RU.

B56: 6mer-1-842 (peptide)
peptide: RRFANK
For B56, in the assay with acetylcholine receptor [2], the Binding affinity (RU) was determined as 11 RU.

B57: 6mer-2-784 (peptide)
peptide: KAEWRK
For B57, the Binding affinity (RU) with acetylcholine receptor [1] stood at 26 RU.

B58: 6mer-2-783 (peptide)
peptide: RDMVRK
B58 gave a Binding affinity (RU) with acetylcholine receptor [1] of 32 RU.

B59: 6mer-2-787 (peptide)
peptide: RIWHKK
The molecule B59 showed a Binding affinity (RU) in the assay with acetylcholine receptor [1] of 19 RU.

B60: 6mer-1-809 (peptide)
peptide: KKKSNR
In turn, B60 returned a Binding affinity (RU) with acetylcholine receptor [2] of 12 RU.

B61: 6mer-1-845 (peptide)
peptide: KKIDKK
Consider B61, for which the Binding affinity (RU) in the assay with acetylcholine receptor [2] came out at 23 RU.

B62: 6mer-1-808 (peptide)
peptide: RRFEKK
B62 returned a Binding affinity (RU) in the assay with acetylcholine receptor [2] of 24 RU.

B63: 6mer-1-832 (peptide)
peptide: RKYWGK
For the molecule B63, the Binding affinity (RU) with acetylcholine receptor [2] came to 12 RU.

B64: 6mer-1-801 (peptide)
peptide: KKCAVK
B64 had a Binding affinity (RU) with acetylcholine receptor [2] of 18 RU.

B65: 6mer-1-813 (peptide)
peptide: RREDFK
Turning to B65, the Binding affinity (RU) with acetylcholine receptor [2] was determined as 15 RU.

B66: 6mer-1-814 (peptide)
peptide: KKCNAK
In turn, B66 displayed a Binding affinity (RU) with acetylcholine receptor [2] of 15 RU.

B67: 6mer-1-815 (peptide)
peptide: RRFEMR
In the assay with acetylcholine receptor [2], B67 showed a Binding affinity (RU) of 23 RU.

B68: 6mer-1-825 (peptide)
peptide: RKEKWK
In the assay with acetylcholine receptor [2], B68 returned a Binding affinity (RU) of 30 RU.

B69: 6mer-2-786 (peptide)
peptide: RMEMRK
Turning to B69, the Binding affinity (RU) with acetylcholine receptor [1] is 30 RU.

B70: 6mer-1-840 (peptide)
peptide: RKICNK
In turn, B70 registered a Binding affinity (RU) with acetylcholine receptor [2] of 12 RU.

B71: 6mer-2-779 (peptide)
peptide: KAAHRR
In the case of B71, the Binding affinity (RU) in the assay with acetylcholine receptor [1] amounted to 13 RU.
